From patent US20230106247A1 (L AND L BIO CO LTD NINGBO CHINA, published 2023)
Where a chain is given by its changes, count along the chain named. Where two headings read alike, the source gives them in different places. Blank lines part the entries; values can stand above or below the binder they belong to.

Columns and labels:
human Sirpα-V1-his [1] = target: T1, human Sirpα-V1-his (human, UniProt P78324 31-373); assay: blocking ELISA, competitor CD47-hFc
T1 construct: range 31-373; Bought (Sino Biological 11612-H08H) or expressed in-house; also called hSirpα-V1; hSirpα-V1-his
Experimental: (§1) The recombinant proteins such as human Sirpα-V1-hFc/Sirpα-V1-his were diluted to concentrations of 5 μg/mL or 2 μg/mL respectively with a PBS buffer at pH 7.4, and then added into a 96-well ELISA plate (Corning, CLS3590-100EA) at a volume of 50 μL/well, and placed in an incubator at 37° C. for 2 hours. After the liquid was discarded, the wells were added with a blocking solution of 5% skimmed milk (skimmed milk powder available from Bright Dairy) diluted with PBS at 230 μL/well, and incubated in an incubator at 37° C. for 3 hours, or placed overnight at 4° C. (for 16-18 hours) for blocking. […] The plate was washed for 5 times, added with 50 μL/well of streptavidin-HRP (GenScript, M00091) or anti-his-HRP secondary antibody (GenScript, A00612) diluted at 1:1000, incubated at 37° C. for 1 hour, and then washed with PBST for 5 times. Each well was added with 50 μL of TMB (Surmodic, Cat #: TTMB-1000-01) for color development, and added with 50 μL/well of 1 M H₂SO₄ to stop the reaction. The readings on a microplate reader (MultiskanGO Thermo, Model 51119200) were subjected to data analysis by GraphPad prism 5.

human Sirpα-V1-his [2] = target: T1, human Sirpα-V1-his; assay: ELISA
human Sirpα-V1-hFc [3] = target: T2, human Sirpα-V1-hFc (human, UniProt P78324 31-373); assay: blocking ELISA, competitor CD47-his
T2 construct: range 31-373; also called hSirpα (dimer); hSirpα-V1-hFc (dimer); not shown: human IgG1 Fc region at the C-terminus
Experimental: as §1

[4] = target: T3, human PD-1 (recombinant, hFc/his tag) (human, UniProt Q15116 21-167); assay: ELISA
T3 construct: not shown: hFc or his tag
Experimental: (§2) The self-expressed human PD-1, Sirpα and the like antigens of the present disclosure were diluted with a PBS buffer at pH7.4 to a concentration of 2 μg/mL according to different assays, and then added into a 96-well ELISA plate (Corning, CLS3590-100EA) at a volume of 50 μL/well, and placed in an incubator at 37° C. for 2 hours. After the liquid was discarded, the wells were added with a blocking solution of 5% skimmed milk (Sangon Biotech (Shanghai) Co., Ltd., A600669-0250) diluted with PBS at 200 μL/well, and incubated in an incubator at 37° C. for 3 hours, or placed overnight at 4° C. (for 16-18 hours) for blocking. The blocking solution was discarded, and the plate was washed with a PBST buffer (pH7.4 PBS containing 0.05% tween-20) for 5 times, then added with 50 μL/well of 5-fold serial dilution of the antibody to be tested in 1% BSA, and incubated at 37° C. for 1 hour. […] The plated was washed with PBST for 5 times, then added with 50 μL/well of TMB chromogenic substrate (KPL, 52-00-03), incubated at room temperature for 5-10 min, added with 50 μL/well of 1 M H₂SO₄ to stop the reaction, and read by a […] Go microplate reader (ThermoFisher, 51119200) for the absorbance value at 450 nm, and then EC₅₀ was calculated according to the OD value.
(§3) The aforementioned bispecific antibodies were cloned, expressed and purified according to the cloning, expression and purification methods of Example 1 of the present disclosure.

human Sirpα-V1-his [5] = target: T1, human Sirpα-V1-his; assay: ELISA; remark: listed apart in the source
Experimental: as §2, §3

[6] = target: T3, human PD-1 (recombinant, hFc/his tag); assay: blocking ELISA, competitor PD-L1
Experimental: (§4) The antigens PD-1 and Sirpα expressed according to the method of Example 1 were diluted with a PBS buffer at pH7.4 to a concentration of 2 μg/mL, added into a 96-well ELISA plate (Corning, CLS3590-100EA) at a volume of 50 μL/well, and incubated at 37° C. for 2 hours. After the liquid was discarded, the wells were added with a blocking solution of 5% skimmed milk (Sangon Biotech (Shanghai) Co., Ltd., A600669-0250) formulated with PBS at 200 μL/well, and incubated at 37° C. for 3 hours for blocking. […] The plate was washed with PBST for 5 times, added with 50 μL/well of HRP-labeled secondary antibody (GenScript Biotechnology Co., Ltd., M00091) diluted at 1:1000, and incubated at 37° C. for 1 hour. The plated was washed with PBST for 5 times, then added with 50 μl/well of TMB chromogenic substrate (KPL, 52-00-03), incubated at room temperature for 5-10 min, added with 50 μl/well of 1 M H₂SO₄ to stop the reaction, and read by a […] Go microplate reader (ThermoFisher, 51119200) for the absorbance value at 450 nm, and then IC₅₀ was calculated according to the OD value.

human Sirpα-V1-hFc [7] = target: T2, human Sirpα-V1-hFc; assay: blocking ELISA, competitor CD47-his; remark: listed apart in the source
Experimental: as §4

human Sirpα-V1-his [8] = target: T1, human Sirpα-V1-his; assay: blocking ELISA, competitor CD47-hFc; remark: listed apart in the source
Experimental: as §4

IC50 (human Sirpα-V1-his [1]): 9.1 nM
EC50 (human Sirpα-V1-his [2]): 0.057 nM
IC50 (human Sirpα-V1-hFc [3]): 4.75 nM
B1: humanized antibody mab14-h14 (antibody, human IgG4 S228P, kappa, V domains shown)
VH: QVQLVQSGAEVKKPGASVKVSCKASGYNFNIYWINWVRQAPGQGLEWIGNIYPSSISTNYNEKFKTRATLTVDKSTSTVYMELSSLRSEDTAVYYCARSEGTYYGGRYEGDWFGYWGQGTLVTVSS
VL: DIQMTQSPSSLSASVGDRVTITCRASQDIRNYLNWYQQKPGGTPKLLIYFTSTLHSGVPSRFSGSGSGTDYTLTISSLQPEDFATYYCQQGNTLPWTFGGGTKVEIKR
notes: hIgG4, κ

IC50 (human Sirpα-V1-his [1]): 7.37 nM
EC50 (human Sirpα-V1-his [2]): 0.077 nM
IC50 (human Sirpα-V1-hFc [3]): 5.13 nM
B2: humanized antibody mab14-h15 (antibody, human IgG4 S228P, kappa, V domains shown)
VH: B1 VH
VL: B1 VL with G42K
notes: hIgG4, κ

EC50 (human Sirpα-V1-his [2]): 0.068 nM
B3: humanized antibody mab14-h10 (antibody, human IgG4 S228P, kappa, V domains shown)
VH: B1 VH with R38K, R67K, L83F
VL: B1 VL
notes: hIgG4, κ

EC50 (human Sirpα-V1-his [2]): 0.067 nM
B4: humanized antibody mab14-h8 (antibody, human IgG4 S228P, kappa, V domains shown)
VH: B1 VH with R38K, R67K, L83F
VL: B1 VL with Y71F
notes: hIgG4, κ

IC50 (human Sirpα-V1-his [1]): 8.47 nM
EC50 (human Sirpα-V1-his [2]): 0.061 nM
IC50 (human Sirpα-V1-hFc [3]): 8.99 nM
B5: humanized antibody mab14-h5 (antibody, human IgG4 S228P, kappa, V domains shown)
VH: B1 VH
VL: B1 VL with P44V
notes: hIgG4, κ

EC50 (human Sirpα-V1-his [2]): 0.081 nM
B6: humanized antibody mab14-h7 (antibody, human IgG4 S228P, kappa, V domains shown)
VH: B1 VH with R38K, R67K, K74T
VL: B1 VL with P44V
notes: hIgG4, κ

EC50 (human Sirpα-V1-his [2]): 0.073 nM
B7: humanized antibody mab14-h11 (antibody, human IgG4 S228P, kappa, V domains shown)
VH: B1 VH with R38K, R67K, L83F
VL: B1 VL with G42K
notes: hIgG4, κ

EC50 (human Sirpα-V1-his [2]): 0.062 nM
B8: humanized antibody mab14-h9 (antibody, human IgG4 S228P, kappa, V domains shown)
VH: B1 VH with R38K, R67K, L83F
VL: B1 VL with T43A
notes: hIgG4, κ

EC50 (human Sirpα-V1-his [2]): 0.088 nM
B9: humanized antibody mab14-h4 (antibody, human IgG4 S228P, kappa, V domains shown)
VH: B1 VH with K74T
VL: B1 VL with P44V
notes: hIgG4, κ

IC50 (human Sirpα-V1-his [1]): 9.56 nM
EC50 (human Sirpα-V1-his [2]): 0.089 nM
IC50 (human Sirpα-V1-hFc [3]): 5.31 nM
B10: humanized antibody mab14-h13 (antibody, human IgG4 S228P, kappa, V domains shown)
VH: B1 VH
VL: B1 VL with T43A
notes: hIgG4, κ

EC50 (human Sirpα-V1-his [2]): 0.103 nM
B11: humanized antibody mab14-h3 (antibody, human IgG4 S228P, kappa, V domains shown)
VH: B1 VH with I48M, K74T
VL: B1 VL with P44V
notes: hIgG4, κ

EC50 (human Sirpα-V1-his [2]): 0.148 nM
B12: humanized antibody mab14-h1 (antibody, human IgG4 S228P, kappa, V domains shown)
VH: B1 VH with I48M, A68V, L70M, V72R, K74T
VL: B1 VL with G42K, T43A, Y71F
notes: hIgG4, κ

IC50 (human Sirpα-V1-his [1]): 8.08 nM
EC50 (human Sirpα-V1-his [2]): 0.092 nM
IC50 (human Sirpα-V1-hFc [3]): 3.49 nM
B13: humanized antibody mab14-h12 (antibody, human IgG4 S228P, kappa, V domains shown)
VH: B1 VH
VL: B1 VL with Y71F
notes: hIgG4, κ

EC50 (human Sirpα-V1-his [2]): 0.095 nM
B14: humanized antibody mab14-h6 (antibody, human IgG4 S228P, kappa, V domains shown)
VH: B1 VH with R38K, K74T
VL: B1 VL with P44V
notes: hIgG4, κ

EC50 (human Sirpα-V1-his [2]): 0.073 nM
B15: humanized antibody mab14-h2 (antibody, human IgG4 S228P, kappa, V domains shown)
VH: B1 VH with R38K, R67K, L83F
VL: B1 VL with P44V
notes: hIgG4, κ

EC50 [4]: 0.074 nM
EC50 (human Sirpα-V1-his [5]): 0.066 nM
IC50 [6]: 2 nM
IC50 (human Sirpα-V1-hFc [7]): 3.78 nM
IC50 (human Sirpα-V1-his [8]): 5.37 nM
B16: bispecific antibody LB502 (bispecific antibody, human IgG4 S228P, kappa)
light: EIVLTQSPATLSLSPGERATLSCRASKGVSTSGYSYLHWYQQKPGQAPRLLIYLASYLESGVPARFSGSGSGTDFTLTISSLEPEDFAVYYCQHSRDLPLTFGGGTKVEIKRTVAAPSVFIFPPSDEQLKSGTASVVCLLNNFYPREAKVQWKVDNALQSGNSQESVTEQDSKDSTYSLSSTLTLSKADYEKHKVYACEVTHQGLSSPVTKSFNRGEC
heavy: not shown
notes: mab14-h16 scFv at the N-terminus of the Pem heavy chain

EC50 [4]: 0.061 nM
EC50 (human Sirpα-V1-his [5]): 0.055 nM
IC50 [6]: 1.09 nM
IC50 (human Sirpα-V1-hFc [7]): 4.62 nM
IC50 (human Sirpα-V1-his [8]): 6.63 nM
B17: bispecific antibody LB504 (bispecific antibody, human IgG4 S228P, kappa)
light: B16 light
heavy: not shown
notes: mab14-h16 scFv at the C-terminus of the Pem heavy chain

EC50 [4]: 0.063 nM
EC50 (human Sirpα-V1-his [5]): 0.075 nM
IC50 [6]: 1.45 nM
IC50 (human Sirpα-V1-hFc [7]): 4.8 nM
IC50 (human Sirpα-V1-his [8]): 7.63 nM
B18: bispecific antibody LB503 (bispecific antibody, human IgG4 S228P, kappa)
light: EIVLTQSPATLSLSPGERATLSCRASKGVSTSGYSYLHWYQQKPGQAPRLLIYLASYLESGVPARFSGSGSGTDFTLTISSLEPEDFAVYYCQHSRDLPLTFGGGTKVEIKRTVAAPSVFIFPPSDEQLKSGTASVVCLLNNFYPREAKVQWKVDNALQSGNSQESVTEQDSKDSTYSLSSTLTLSKADYEKHKVYACEVTHQGLSSPVTKSFNRGECAGGGGSGGGGSGGGGSQVQLVQSGAEVKKPGASVKVSCKASGYNFNIYWINWVRQAPGQGLEWIGNIYPSSISTNYNEKFKTRATLTVDKSTSTVYMELSSLRSEDTAVYYCARSEGTYYGGRYEGDWFGYWGQGTLVTVSSGGGGSGGGGSGGGGSDIQMTQSPSSLSASVGDRVTITCRASQDIRNYLNWYQQKPGKAPKLLIYFTSTLHSGVPSRFSGSGSGTDFTLTISSLQPEDFATYYCQQGNTLPWTFGGGTKVEIK
heavy: not shown
notes: mab14-h16 scFv at the C-terminus of the Pem light chain

EC50 [4]: 0.075 nM
EC50 (human Sirpα-V1-his [5]): 0.059 nM
IC50 [6]: 1.3 nM
IC50 (human Sirpα-V1-hFc [7]): 2.55 nM
IC50 (human Sirpα-V1-his [8]): 5.42 nM
B19: bispecific antibody LB501 (bispecific antibody, human IgG4 S228P, kappa)
light: DIQMTQSPSSLSASVGDRVTITCRASQDIRNYLNWYQQKPGKAPKLLIYFTSTLHSGVPSRFSGSGSGTDFTLTISSLQPEDFATYYCQQGNTLPWTFGGGTKVEIKGGGGSGGGGSGGGGSQVQLVQSGAEVKKPGASVKVSCKASGYNFNIYWINWVRQAPGQGLEWIGNIYPSSISTNYNEKFKTRATLTVDKSTSTVYMELSSLRSEDTAVYYCARSEGTYYGGRYEGDWFGYWGQGTLVTVSSGGGGSGGGGSGGGGSEIVLTQSPATLSLSPGERATLSCRASKGVSTSGYSYLHWYQQKPGQAPRLLIYLASYLESGVPARFSGSGSGTDFTLTISSLEPEDFAVYYCQHSRDLPLTFGGGTKVEIKRTVAAPSVFIFPPSDEQLKSGTASVVCLLNNFYPREAKVQWKVDNALQSGNSQESVTEQDSKDSTYSLSSTLTLSKADYEKHKVYACEVTHQGLSSPVTKSFNRGEC
heavy: not shown
notes: mab14-h16 scFv at the N-terminus of the Pem light chain
